# Assay results: publication PMC11624264, “Phosphorylation of P-stalk proteins defines the ribosomal state for interaction with auxiliary protein factors” (EMBO Reports, 2024)
# “And” between values parts separate entries of the source, which are not always exact repeats. Equal values may be shown once.
# T1: eIF5B (UniProt P39730 1-1002)
# T1 construct: translation initiation factor eIF5B; also called trGTPase eIF5B; source: purified as previously described (Blanchet and Ranjan, 2022)
# T1 sequence (looked up): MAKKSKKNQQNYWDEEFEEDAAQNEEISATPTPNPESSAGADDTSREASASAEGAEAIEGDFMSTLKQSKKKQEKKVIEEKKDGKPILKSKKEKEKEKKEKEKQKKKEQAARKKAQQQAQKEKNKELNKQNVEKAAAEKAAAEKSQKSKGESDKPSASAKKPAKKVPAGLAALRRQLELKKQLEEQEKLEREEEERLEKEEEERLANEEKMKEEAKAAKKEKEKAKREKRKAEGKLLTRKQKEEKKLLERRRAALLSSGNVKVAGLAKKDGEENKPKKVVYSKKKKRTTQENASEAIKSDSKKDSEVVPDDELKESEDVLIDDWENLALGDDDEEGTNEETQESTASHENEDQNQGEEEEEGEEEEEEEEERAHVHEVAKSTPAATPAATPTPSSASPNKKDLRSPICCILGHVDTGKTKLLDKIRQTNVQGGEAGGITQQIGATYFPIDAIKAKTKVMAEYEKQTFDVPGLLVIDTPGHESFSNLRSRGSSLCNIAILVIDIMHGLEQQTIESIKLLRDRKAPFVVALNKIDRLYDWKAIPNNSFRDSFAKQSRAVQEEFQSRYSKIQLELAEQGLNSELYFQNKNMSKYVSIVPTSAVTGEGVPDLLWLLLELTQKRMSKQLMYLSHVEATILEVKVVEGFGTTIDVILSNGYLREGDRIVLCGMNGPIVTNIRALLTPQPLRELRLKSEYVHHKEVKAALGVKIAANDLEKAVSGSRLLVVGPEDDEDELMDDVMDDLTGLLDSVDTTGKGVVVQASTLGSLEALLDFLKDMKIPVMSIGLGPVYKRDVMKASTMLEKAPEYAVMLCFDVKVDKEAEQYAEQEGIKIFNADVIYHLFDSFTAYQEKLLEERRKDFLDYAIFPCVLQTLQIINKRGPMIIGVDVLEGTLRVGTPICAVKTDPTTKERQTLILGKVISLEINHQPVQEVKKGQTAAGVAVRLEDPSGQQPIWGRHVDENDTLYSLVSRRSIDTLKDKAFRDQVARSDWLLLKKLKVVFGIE
# B1: AP-treated (dephosphorylated) yeast pentameric P-stalk complex ΔuL10(199-312)-(P1A–P2B)-(P1B–P2A) (complex, S. cerevisiae)
# chain 1: SSILDITDEELVSHFVSAVSTIASISLAIGYPTLPSVGHTLINNYKDLLAVAIAASYHYPEIEDLVDRIENPEKYAAAAPAATSAASGDAAPAEEAAAEEEEESDDDMGFGLFD
# chain 2: MSTESALSYAALILADSEIEISSEKLLTLTNAANVPVENIWADIFAKALDGQNLKDLLVNFSAGAAAPAGVAGGVAGGEAGEAEAEKEEEEAKEESDDDMGFGLFD
# chain 3: MKYLAAYLLLVQGGNAAPSAADIKAVVESVGAEVDEARINELLSSLEGKGSLEEIIAEGQKKFATVPTGGASSAAAGAAGAAAGGDAAEEEKEEEAKEESDDDMGFGLFD
# chain 4: MSDSIISFAAFILADAGLEITSDNLLTITKAAGANVDNVWADVYAKALEGKDLKEILSGFHNAGPVAGAGAASGAAAAGGDAAAEEEKEEEAAEESDDDMGFGLFD
# chain 5: MKYLAAYLLLNAAGNTPDATKIKAILESVGIEIEDEKVSSVLSALEGKSVDELITEGNEKLAAVPAAGPASAGGAAAASGDAAAEEEKEEEAAEESDDDMGFGLFD
# notes: ribosomal P-stalk protein P1A, S. cerevisiae; ribosomal P-stalk protein P2B, S. cerevisiae; ribosomal P-stalk protein P1B, S. cerevisiae; ribosomal P-stalk protein P2A, S. cerevisiae; For MST the complex was labelled with RED-tris-NTA on the His tag; also called dephospho P-stalk; dephospho-P-stalk complex; copies: + + + +
# B2: eIF5B, P39730 1-1002 (enzyme)
# chain: MAKKSKKNQQNYWDEEFEEDAAQNEEISATPTPNPESSAGADDTSREASASAEGAEAIEGDFMSTLKQSKKKQEKKVIEEKKDGKPILKSKKEKEKEKKEKEKQKKKEQAARKKAQQQAQKEKNKELNKQNVEKAAAEKAAAEKSQKSKGESDKPSASAKKPAKKVPAGLAALRRQLELKKQLEEQEKLEREEEERLEKEEEERLANEEKMKEEAKAAKKEKEKAKREKRKAEGKLLTRKQKEEKKLLERRRAALLSSGNVKVAGLAKKDGEENKPKKVVYSKKKKRTTQENASEAIKSDSKKDSEVVPDDELKESEDVLIDDWENLALGDDDEEGTNEETQESTASHENEDQNQGEEEEEGEEEEEEEEERAHVHEVAKSTPAATPAATPTPSSASPNKKDLRSPICCILGHVDTGKTKLLDKIRQTNVQGGEAGGITQQIGATYFPIDAIKAKTKVMAEYEKQTFDVPGLLVIDTPGHESFSNLRSRGSSLCNIAILVIDIMHGLEQQTIESIKLLRDRKAPFVVALNKIDRLYDWKAIPNNSFRDSFAKQSRAVQEEFQSRYSKIQLELAEQGLNSELYFQNKNMSKYVSIVPTSAVTGEGVPDLLWLLLELTQKRMSKQLMYLSHVEATILEVKVVEGFGTTIDVILSNGYLREGDRIVLCGMNGPIVTNIRALLTPQPLRELRLKSEYVHHKEVKAALGVKIAANDLEKAVSGSRLLVVGPEDDEDELMDDVMDDLTGLLDSVDTTGKGVVVQASTLGSLEALLDFLKDMKIPVMSIGLGPVYKRDVMKASTMLEKAPEYAVMLCFDVKVDKEAEQYAEQEGIKIFNADVIYHLFDSFTAYQEKLLEERRKDFLDYAIFPCVLQTLQIINKRGPMIIGVDVLEGTLRVGTPICAVKTDPTTKERQTLILGKVISLEINHQPVQEVKKGQTAAGVAVRLEDPSGQQPIWGRHVDENDTLYSLVSRRSIDTLKDKAFRDQVARSDWLLLKKLKVVFGIE
# Assays:
# [1] = target: P-stalk of 80S ribosomes from the SDPM yeast mutant strain (S to A mutations within all P-stalk proteins at the C-termini) (S. cerevisiae) (UniProt P05317)
# [2] = target: native (phosphorylated) yeast pentameric P-stalk complex ΔuL10(199-312)-(P1A–P2B)-(P1B–P2A) (S. cerevisiae) (UniProt P05317)
# eIF5B = target: T1, eIF5B; test: MST; P-stalk complex labelled with RED-tris-NTA on its His tag, 5 nM, titrated with unlabelled eIF5B (dilution series from 1.48 μM); PBS with 0.05% Tween-20 and 1 mg/ml BSA; 25 °C; Monolith NT.115 Pico; conditions: both partners purified
# [3] = target: P-stalk of 80S ribosomes from the SDPM yeast mutant strain (S to A mutations within all P-stalk proteins at the C-termini) (S. cerevisiae), P05317
# [4] = target: native (phosphorylated) yeast pentameric P-stalk complex ΔuL10(199-312)-(P1A–P2B)-(P1B–P2A) (S. cerevisiae), P05317; test: MST; P-stalk complex labelled with RED-tris-NTA on its His tag, 5 nM, titrated with unlabelled eIF5B (dilution series from 1.48 μM); PBS with 0.05% Tween-20 and 1 mg/ml BSA; 25 °C; Monolith NT.115 Pico
molecule,measurement,setting,value
eEF1A (from UniProt P02994 1-458) (enzyme),"GTPase activity of eEF1A (0.05 µM, 10 µM GTP) with 0.2 µM 80S ribosomes from the SDPM strain (S to A, dephospho-mimicking P-stalk on the ribosome): average GTPase rate",[1],0.019 min⁻¹
same,"GTPase activity of eEF1A (0.05 µM, 10 µM GTP) with 0.2 µM 80S ribosomes from the WT strain (phosphorylated P-stalk on the ribosome): average GTPase rate",[2],0.008 min⁻¹
eEF2 (from UniProt P32324 1-842) (enzyme),"GTPase activity of eEF2 (0.05 µM, 10 µM GTP) with 0.2 µM 80S ribosomes from the SDPM strain (S to A, dephospho-mimicking P-stalk on the ribosome): average GTPase rate",[1],0.044 min⁻¹
same,"GTPase activity of eEF2 (0.05 µM, 10 µM GTP) with 0.2 µM 80S ribosomes from the WT strain (phosphorylated P-stalk on the ribosome): average GTPase rate",[2],0.019 min⁻¹
B1,Kd,eIF5B,4.6 µM and 4.5 µM
B2,"GTPase activity of eIF5B (0.05 µM, 10 µM GTP) with 0.2 µM 80S ribosomes from the SDPM strain (S to A, dephospho-mimicking P-stalk on the ribosome): average GTPase rate",[3],0.02 min⁻¹
same,Kd,[4],11.2 µM
